Publication PMC11410209

Biological target: 2526 IgG3
Test: ELISA
Details: read off a plot

Substance | response (parent: est. 4.0) | response
H1 NC99 trimer, wild type HA (Fig 5A) (from UniProt Q6WG00) N23T | 2.8 Abs (450nm) | 
WT-NTD N61A |  | 2.7 Abs (450nm)
WT-NTD N149A |  | 1 Abs (450nm)
WT-NTD N165A |  | 2.7 Abs (450nm)
WT-NTD N234A |  | 1.7 Abs (450nm)
